These results are taken from publication PMC12548092, “Exploring Helical Fraying Linked to Dynamics and Catalysis in Adenylate Kinase” (Biochemistry, 2025).

For orientation: Km means the substrate concentration at which the rate is half of its maximum. Broadly, the kcat is the maximal rate divided by the concentration of active sites. Broadly, the kcat/Km is the turnover number divided by the Michaelis constant.

The test system of this data set is Nc1ncnc2c1ncn2[C@@H]1O[C@H](COP(=O)(O)OP(=O)(O)OP(=O)(O)O)[C@@H](O)[C@H]1O. As to the kind of experiment: purified protein. The settings on record: varied substrate not named in table (text: substrates ATP and AMP).

On to AKeco (Escherichia coli K-12; E114A), for which the Km is 36 ± 7 µM, the kcat is 254 s⁻¹ and the kcat/Km turned out to be 7.1e+06 M⁻¹ s⁻¹.
The corresponding values for AKeco (Escherichia coli K-12) are 110 ± 9 µM, 360 ± 11 s⁻¹ and 3.3e+06 M⁻¹ s⁻¹.
